Molecular target: T1, human eIF2B (heterodecamer of two copies each of the α-, β-, γ-, δ- and ε-subunits) (human, UniProt Q14232;P49770;Q9NR50;Q9UI10;Q13144)
T1 construct: also called eIF2B decamer; copies: 2 + 2 + 2 + 2 + 2
Test: MST
Settings: both partners purified

B1: Sandfly fever Sicilian virus (SFSV) nonstructural protein NSs, wild type (natural protein)
chain: MNSQYMFDYPAINIDVRCHRLLSSVSYVAYNKFHTHDVSTYEHCEIPLEKLRLGFGRRNSLADFYSLGELPASWGPACYFSSVKPMMYTFQGMASDLSRFDLTSFSRKGLPNVLKALSWPLGIPDCEIFSICSDRFVRGLQTRDQLMSYILRMGDSHSLDECIVQAHKKILQEARRLGLSDEHYNGYDLFREIGSLVCLRLINAEPFDTASSGEALDVRTVIRSYRASDPSTGLTEYGNSLWTPIHSHVDENDESSSDSDF
notes: also called SFSV NSs; wild-type SFSV NSs; source: E. coli T7 Express, purified (His-tag resin, HiTrap Q, Superdex 200); not shown: His-tag, C-terminal, kept
Kd: 16.9 ± 2.8 nM
